# What was measured:
# [1] = target: TrkA endogenously expressed in PC12 cells (UniProt P35739); assay: cell-based or functional assay
# TrkAK538A = assay: cell-based or functional assay
# Sequence of TrkA endogenously expressed in PC12 cells (P35739 33-799 limits assumed): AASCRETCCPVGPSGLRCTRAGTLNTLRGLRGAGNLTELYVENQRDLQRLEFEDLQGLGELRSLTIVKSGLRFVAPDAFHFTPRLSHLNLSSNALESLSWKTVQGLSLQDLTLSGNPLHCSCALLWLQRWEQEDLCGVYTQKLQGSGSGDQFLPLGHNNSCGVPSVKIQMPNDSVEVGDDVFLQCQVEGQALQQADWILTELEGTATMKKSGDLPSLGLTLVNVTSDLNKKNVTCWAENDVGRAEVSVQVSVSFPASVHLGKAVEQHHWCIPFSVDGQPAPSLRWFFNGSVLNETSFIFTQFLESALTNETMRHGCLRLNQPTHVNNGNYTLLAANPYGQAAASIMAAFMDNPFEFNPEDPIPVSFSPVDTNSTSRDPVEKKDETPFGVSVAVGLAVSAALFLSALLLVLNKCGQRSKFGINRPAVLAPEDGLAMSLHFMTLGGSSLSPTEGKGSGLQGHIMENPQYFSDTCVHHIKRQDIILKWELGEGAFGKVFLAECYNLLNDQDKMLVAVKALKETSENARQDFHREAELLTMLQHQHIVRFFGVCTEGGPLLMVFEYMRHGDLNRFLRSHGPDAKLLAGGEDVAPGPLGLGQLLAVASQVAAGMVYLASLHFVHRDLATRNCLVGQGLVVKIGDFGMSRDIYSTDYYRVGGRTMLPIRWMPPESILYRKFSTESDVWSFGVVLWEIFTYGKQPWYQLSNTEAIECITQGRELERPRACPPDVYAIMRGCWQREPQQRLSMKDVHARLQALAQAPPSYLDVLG
substance,measurement,setting,value
p75^ICD-YFP (from UniProt P08138 273-427) (receptor),"neurite outgrowth of PC12 cells overexpressing the construct, 100 ng/ml NGF, 5 days",[1],60%
same,neurite outgrowth of PC12 cells co-expressing p75^ICD and TrkAK538A after NGF treatment,TrkAK538A,10 to 40 µm
